Experimental data as given in paper PMC8000282, “In Silico and In Vitro Tailoring of a Chitosan Nanoformulation of a Human Metabolic Enzyme” (Pharmaceutics, 2021).

Biological target: the molecule itself
Experiment: SEC; HiLoad Superdex 200 HR column, 20 mM Na-Hepes, 200 mM NaCl, pH 7.0, 0.7 mL/min, 4 °C; relative molecular mass of the oligomeric forms estimated from a calibration curve with standard proteins

B1: human phenylalanine hydroxylase (enzyme, UniProt P00439 1-452, looked up)
chain: MSTAVLENPGLGRKLSDFGQETSYIEDNCNQNGAISLIFSLKEEVGALAKVLRLFEENDVNLTHIESRPSRLKKDEYEFFTHLDKRSLPALTNIIKILRHDIGATVHELSRDKKKDTVPWFPRTIQELDRFANQILSYGAELDADHPGFKDPVYRARRKQFADIAYNYRHGQPIPRVEYMEEEKKTWGTVFKTLKSLYKTHACYEYNHIFPLLEKYCGFHEDNIPQLEDVSQFLQTCTGFRLRPVAGLLSSRDFLGGLAFRVFHCTQYIRHGSKPMYTPEPDICHELLGHVPLFSDRSFAQFSQEIGLASLGAPDEYIEKLATIYWFTVEFGLCKQGDSIKAYGAGLLSSFGELQYCLSEKPKLLPLELEKTAIQNYTVTEFQPLYYVAESFNDAKEKVRNFAATIPRPFSVRYDPYTQRIEVLDNTQQLKILADSINSEIGILCSALQKIK
notes: human phenylalanine hydroxylase (hPAH), expressed in E. coli as a fusion protein; a His tag is inferred from pTrcHis and the Ni resin; The tetrameric fraction from SEC was used as the fusion protein; also called hPAH; Human PAH; source: E. coli, fusion protein, purified (Ni-chelating resin, SEC)
  stoichiometry N: 4
